Measured values: the DeepSol protein solubility set

Assay: soluble on expression in E. coli; label from the status in PepcDB or PDB records

| Sequence | soluble on expression in E. coli |
| --- | --- |
| GSMNDRDFMRYSRQILLDDIALDGQQKLLDSQVLIIGLGGLGTPAALYLAGAGVGTLVLADDDDVHLSNLQRQILFTTEDIDRPKSQVSQQRLTQLNPDIQLTALQQRLTGEALKDAVARADVVLDCTDNMATRQEINAACVALNTPLITASAVGFGGQLMVLTPPWEQGCYRCLWPDNQEPERNCRTAGVVGPVVGVMGTLQALEAIKLLSGIETPAGELRLFDGKSSQWRSLALRRASGCPVCGGSNADPV | soluble |
| MGHHHHHHSHMRKLTALFVASTLAMGAANLAHAAETTTAAPADAKPMMQHKGKFGPHHDMMFKNLNLTDAQKQQIRDIMKAQREQMKRPLLEERRAMHDIIASDTFDKAKAEAQITKMEAQRKANMLAHMETQNKIYNVLTPEQKKQYNANFEKRLTERPAQEGKMPAAAE | soluble |
| MENLYKELGDQSLHKDFCQTVASTFSCSVNRNGKSSITWKQVQIWFQEKLKHQSQPKSKTLPSPPLQIHDLSNPSSYASNASNATFVGNSTFVQTRKGKASDLADLAFEAKSARDYAWYDVSSFLTYRVLRTGELEVRVRFSGFDNRHDEWVNVKTSVRERSIPVEPSECGRVNVGDLLLCFQEREDQALYCDGHVLNIKRGIHDHARCNCVFLVRYELDNTEESLGLERICRRPEE | not soluble |
| MGSDKIHHHHHHMVMGDITRIDTVQQYCDLFEVEALHPLVSVVNCYEVQPIRHSKKLYNIYAVLLKDTDCGTMNYGRSLYDYEKGSMLFIAPGQVMGSDDDGSLHQPAGWALMFHPELLRGTSLAHIIKEYSYFSYNANEALHLSEQERKVVIECINNVAEELRHPIDKHSRSLIIDTMKLLLDRCIRFYDRQFITRENANNDLLARFELLLNNYYHSALPTSKGIPTVQYCADQLCLSTNYFSDLVKKETGMSAIKHIQQKIMDIAKERIMNTQKSISQISDEMGFQYPQHFTRWFKKMEGCTPNEYRNEIIKQAIN | not soluble |
| MSLQEIKGLSFYHQDWEVYCSNTGTCRAAGYQSDDGSQQPASILLTREAGSKQPVQAEFALAGDDQETFAANKIKNIRFYVNGKDLGTVSVKGVDSPLMGKLSTAQVNGLLQQATQKVDIVFKNNHYVWKISDSGMTAALLKVDDFQKRIGTVGALVKKGKSDDSKVLMPQPKLVIKKVKTADQPYLTLNPKNKQYASLYKLLMAAQPTPKEDGFCEGVYDFDSDAITAQSIELYKLTNNKVLATTLCWRGAYNEGYGAWVLNQSLTGPATYITQSASDIASGIISSAQKGRGIGDCWMSQSWIWNGQKYVQNQDMWTGMCKGLAAGGVWELDQIEAVVKEGHHHHHH | soluble |
| MGSDKIHHHHHHMNTSGWGKYPEIEAQVLTPSSEKALQDLIGTGSYDGVTPRGLGRSYGDSSLGKLMVKTLRLNHMLSFELQSGLLHCQSGVSLAEILEVFVPRGWFLPVTPGTKLVTVGGAIASDIHGKNHHIDGCFCDHVDFLDLLTGSGEIIRCSPHEQAQLFHATCGGMGLTGIILSAAIRLTPIKSAYIDQVTFKSANLGESFELFEKQAEQPYSVAWIDCISSGDKLGRSLLMTGKHAQHGALAAHHNPGLSVPLDLPSFILNPYSIKAFNTLYYHKARQRETHATVHYDPFFYPLDGIGHWNRMYGKNGFTQYQFVIPKEAGLQAMDLILRTIVNSKKGSFLAVLKAFGKENRNLLSFPMEGYTLALDFKIEPDLFPLLDRLDAMVLDHGGRLYLTKDARMNAETFRKCYPKWEQFQNIRQQYGARHTFLSMQSQRLGLD | not soluble |
| MTPTEQAAVRPPLPVKMVIAGGFGVGKTTAVGSISEIVPLTTEAAITEVAAGVDDLTHTPRKTTTTVAMDFGCITIDPTLKLYLFGTPGQDRFGFMWDDLVEGAVGGLVIVDTRRLDDCYAAVDYFEHKQIPFAVALNAFDGRIEHDLDEVRWALDVAERVPVVVFDARERGSVRDALLVVLELALARTGALEHHHHHH | not soluble |
| MALDANDLLPPEKAFVPELAVADDGVNVRFRIADGYYMYQAKIVGKTNPADLLGQPSFSKGEEKEDEFFGRQTVYHHEAQVAFPYAKAVGEPYKLVLTYQGSAEAGVCYPPVDTEFDIFGNGTYHPQT | soluble |
| MKYGYFDNDNREYVITRPDVPAPWTNYLGTEKFCTVISHNAGGYSFYNSPEYNRVTKFRPNATFDRPGHYVYLRDDDSGDYWSISWQPVAKSLDEAQYQIRHGLSYSKFQCDYNGIHARKTLFVPKGEDAEIWDVVIKNTSDQVRTISAFSFVEFSFSHIQSDNQNHQMSLYSAGTAYRPGLIEYDLYYNTDDFEGFYYLASTFDPDSYDGQRDRFLGLYRDEANPLAVEQGRCSNSAQTCYNHCGSLHKQFTLQPGEEIRFAYILGIGKGNGERLREHYQDVANIDAAFAAIKAHWDERCAKFQVKSPNQGLDTMINAWTLYQAETCVVWSRFASFIEVGGRTGLGYRDTAQDAISVPHANPEMTRKRIVDLLRGQVKAGYGLHLFDPDWFDPEKEDVAPSKSPTVVPTPSDEDKIHGIKDTCSDDHLWLIPTICKYVMETGETSFFDQMIPYADGGEASVYEHMKAALDFSAEYVGQTGICKGLRADWNDCLNLGGGESSMVSFLHFWALQEFIDLAKFLGKDQDVNTYTEMAANVREACETHLWDDEGGWYIRGLTKNGDKIGTAQQQEGRVHLESNTLAVLSGLASQERGEQAMDAVDEHLFSPYGLHLNAPSFSTPNDDIGFVTRVYQGVKENGAIFSHPNPWAWVAETKLGRGDRAMKFYDALNPYNQNDIIEKRIAEPYSYVQFIMGRDHQDHGRANHPWLTGTSGWAYFAVTNYILGVQSGFTGLSVDPCIPSDWPGFEVTRQWRGATYHIQVENPDHVSKGVKSITLNGAPIQGRIPPQAQGSDNQVVVVLGHHHHHH | soluble |
| MHQVYVDIIVDAIIEQYQTEENFYSAYQIQAADWQAWKEGQFGLDNEVMQKIKNLFTDYEWMLTQKILRQTILFPEKRNLAVSEYKRLKTTIAKKWLQSDLGVVELIPNNKQEQEIAAGYIDLKVTLAYGEWGFDDIITFRLPATIQRQLEGSKVELLDWVNENLMDTYVGE | not soluble |
| MGSDKIHHHHHHMRVSVRNLTKIFRVGSIFSLKKLVAIDNVSFEIGSGEIFSLAGESGCGKTTTAKILLGLEEPTNGEVLYDGIKLKDFVENEMHFLKKVQTVQQNPFSTFNPFRKVEDYLFKTVLRFKMANTKDEALRLIEEKLSVVGLNFDEIKGRYPSEFSGGQLQRISIARALLTNPSFLVADEPVSMIDASLRISIVNLFRDLKERFGISILYITHDLSTAYYVADKLAIMFRGSIVEMGRAQDILDTPFHPYTKLLKSSIPVPDPEYEWDENINLSSTEREEFFAKGCKFASRCPEVMSICRESVPPDFDVNGRVVKCWLYK | not soluble |
| RYTNILVPVDSSDAAQAAFTEAVNIAQRHQANLTALYVVDDSAYHTPALDPVLSELLDAEAAHAKDAMRQRQQFVATTSAPNLKTEISYGIPKHTIEDYAKQHPEIDLIVLGATGTNSPHRVAVGSTTSYVVDHAPCNVIVIR | soluble |
| MSLITACPRPCAWRSYALGLGLLPLAAQAEFLADSSAHLDLRNFYQLRDYRQHDAPQSQAGNWSQGFVLRLQSGFTGGPLGFGLDATGLLGVKLDSGRGRSNDGTLPFGANSKEPVDDYSHLGLTAKLRYSQTQLQVGILMPQLPVAFRDDVRLLPQTFDGALLTSSEIEGLTLTAGQLWKSRTRESAGSDDMYIMGRDKAHASDEFNLAGATYAFTPRLSASYYYGQLKDIYRQHYLGLLHTLPLGEGLSLRSDLRYFDSGEDGAAISGPVDNRNLNAMLTLRAGAHAFGIGVQKMIGNDAFPVLNGYTTPYVANLMAYQTFTRPQEKSWQLRYDYDFAGLGLPGLNLMTRYVQGRDIDRGAGRADDSEWERNTDLSYVIQSGPLKSVALKWRNITYRSRYGADLDENRFIVNYTLKLWEGHHHHHH | soluble |
| MLKVIDVDFVSDHTLELTFNDGYQGYADLSVYFKKAPFSEIKDFKRFSLTRDGSLNWDGNELTAATLRDITKGSQKSVELSFNVQEMEAVIKQASWESMMEGRPDILQAAIRSYVEQFGHGQVIAKAGIKSRTSAYRSLKPETTPNFGTLVQLGHAVIELAKDRTVANKEPRI | not soluble |
| SMGDREQLLQRARLAEQAERYDDMASAMKAVTELNEPLSNEDRNLLSVAYKNVVGARRSSWRVISSIEQKTMADGNEKKLEKVKAYREKIEKELETVCNDVLSLLDKFLIKNCNDFQYESKVFYLKMKGDYYRYLAEVASGEKKNSVVEASEAAYKEAFEISKEQMQPTHPIRLGLALNFSVFYYEIQNAPEQACLLAKQAFDDAIAELDTLNEDSYKDSTLIMQLLRDNLTLWTSDQQDEEAGEGN | soluble |
| MILTFNPGKLERQEFFKELINYLWIHDDVTLRKIKSHFTDYSKIDRLLEEYINHGYILRQNKRYSLNLPFLSSLDGLVLDDLVFIDSDSQIYQLLQKRKFVTNLDNPTNHLVFVEETDFERNTLTLSNYFYKLTNGYPLSREQKKLYQLLGDVNSEYALKYMSSFILKFLRKDSVKQKRTVIFIQALELLGYISLNQDTTYRLNAKLDVEALKIYLT | not soluble |
| MSLNRNHPANGWPLALLLAATLALHGCNEPTAATAAPANTTRHGDYTPLTVQHKLGTTVISQLPQRTVALDMNEVDFLDQLGVPVAGMPKDFVPDFLARYKDAGQTADVGSIVQPNLERVHAARPDLILITSLQANHYDELSEMAPTLHFDVDYRDSETGHVAMVRQHLLSLGQVFGKQGLAQRKADALEAKLAQARSVTRDRPERALVVLHNNGAFSAFGVQSRYGFIFNDLGVKPATTTLDTGLHGQPISSEFIQQANPDILYVVDRTAVMEHRPMMTADTLDNPLLRQTNAWKHGRVVFVDPQAWYVTAASPTSLALIADDVIRGYQDEGHHHHHH | soluble |
| MAMSKVKSITRESWILSTFPEWGSWLNEEIEQEQVAPGTFAMWWLGCTGIWLKSEGGTNVCVDFWCGTGKQSHGNPLMKQGHQMQRMAGVKKLQPNLRTTPFVLDPFAIRQIDAVLATHDHNDHIDVNVAAAVMQNCADDVPFIGPKTCVDLWIGWGVPKERCIVVKPGDVVKVKDIEIHALDAFDRTALITLPADQKAAGVLPDGMDDRAVNYLFKTPGGSLYHSGDSHYSNYYAKHGNEHQIDVALGSYGENPRGITDKMTSADMLRMGEALNAKVVIPFHHDIWSNFQADPQEIRVLWEIKKDRLKYGFKPFIWQVGGKFTWPLDKDNFEYHYPRGFDDCFTIEPDLPFKSFL | not soluble |
| MKKEKDLSVAVLIDGDNASSEKMEDVMRFVSRYGAAVVRRIYGDWTKKSLSGWKDAARDYSFRMVQASSFVPGKNTTDIALVMDAMDILHEGRVGCFCLVASDGDYTLLAQRIRESGLTVLGYGEGKTPAALVRSCTEFLLADRKEEKPFQENTPEFFIQRDMEYFDKAFEQAADGKAEVSLSLIGGVLKKLMPKFKVKRYGCRTLGKLYERLEKYELVKTGKGVAGLVRIKS | not soluble |
| MQTSIDPVFAGWDGSVAQARQLQQQLAQRVALRDEVSAAPALLAGFDVGFEDDGQTTRAAAVLLDAQTLLPLETHVARVPTSMPYVPGLLSFRELPALLRALALLARTPDLVFIDGQGIAHPRRFGIAAHFGVVTGLPSIGVAKQRLAGTFIEPGGERGDHSPILLAGAQIGWALRSKPRCNPLIVSPGHRVSMQGALDWTLRTLRAYRLPEPTRLADRLASRRGEIELQTQPTLLLEHHHHHH | not soluble |
| MGQDQTKKQIEKGLQLYQSNQTEKALQVWTKVLEKSSDLMGRFRVLGCLVTAHSEMGRYKEMLKFAVVQIDTARELEDADFLLESYLNLARSNEKLCEFHKTISYCKTCLGLPGTRAGAQLGGQVSLSMGNAFLGLSVFQKALESFEKALRYAHNNDDAMLECRVCCSLGSFYAQVKDYEKALFFPCKAAELVNNYGKGWSLKYRAMSQYHMAVAYRLLGRLGSAMECCEESMKIALQHGDRPLQALCLLCFADIHRSRGDLELSQLKLHCLSESIYRSKGLQRELRAHVVRFHECVEETELYCGLCGESIGEKNSRLQALPCSHIFHLRCLQNNGTRSCPNCRRSSMKPGFV | soluble |
